Test [1] deals with T1, CD47 on CCRF-CEM cells (human, UniProt Q08722 19-323). Put plainly: cell-based or functional assay.
Test [2] concerns the target T1, CD47 on CCRF-CEM cells. As to the kind of experiment: flow cytometry on antibody-opsonized CCRF-CEM cells, anti-human Alexa 647 secondary, median fluorescence, sigmoidal fit. Here is the method: Phagocytosis was assayed by serum starving the macrophages in incomplete AIM V media for two hours. During this incubation period, target cells (CCRF-CEM) from two donors (donor 1 and donor 2) were labeled with CSFE (Invitrogen, #C34554) at […] for 15 minutes at room temperature. Cells were rinsed twice with PBS (Hyclone, #SH30028.02) and resuspended at 8×10⁵/mL in AIM V media. Antibody dilutions were prepared at 0.01 ug/ml to 10 ug/ml in half log dilutions and then incubated with the target cell line for 10 minutes at room temperature (a small portion is retained for flow cytometric analysis/cell binding), after which 100 μL of target cell/antibody suspension was added to the macrophage plates. Samples were treated in triplicate and with appropriate isotype controls.
Samples were incubated for 30 minutes at room temperature, rinsed 2× and then resuspended in FACS buffer and analyzed on the Attune. The EC50 values refer to the concentration that gives half the maximum binding measured as median fluorescent intensity, and was determined by non-linear fit of a sigmoidal dose response within the GraphPad Prism software.
(In general: Flow cytometry measures light scatter and fluorescence of single cells or particles in a stream.)

Values joined by “and” are separate entries in the source; they are usually repeats but may differ in a detail not shown here. Equal entries are not always repeated.

T1 sequence (Q08722 19-323): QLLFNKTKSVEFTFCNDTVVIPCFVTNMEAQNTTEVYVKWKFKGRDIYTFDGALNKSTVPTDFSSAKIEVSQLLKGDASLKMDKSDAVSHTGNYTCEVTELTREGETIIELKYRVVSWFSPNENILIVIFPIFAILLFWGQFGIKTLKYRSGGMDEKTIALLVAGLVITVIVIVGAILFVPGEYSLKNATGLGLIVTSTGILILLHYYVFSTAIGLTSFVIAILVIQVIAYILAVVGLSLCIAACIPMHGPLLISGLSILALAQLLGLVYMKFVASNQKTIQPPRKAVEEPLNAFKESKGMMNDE

B1: Ab482/Ab387 (LC Ab482, HC Ab387) anti-CD47 antibody (antibody, V domains shown)
VH: QMQLVQSGAEVKKPGSSVKVSCKASGFNIKDYYLHWVRQAPGKGLEWMGWIDPDQGDTEYAQKFQGRVTITRDRSTSTAYMELRSLRSEDTAVYYCNAAYGSSSYPMDYWGQGTLVTVSS
VL: NIQMTQSPSSMSASVGDRVTITCKASQDIHRYLSWFQQKPGKVPKHLIYRANRLVSGVPSRFSGSGSGTEFTLTISSLQPEDFATYYCLQYDEFPYTFGGGTKVEIK
notes: Framework variant of AbParental
As a reminder, the EC50 is the concentration giving half of the maximal effect. With B1, in test [1], the “Phagocytosis EC50 (ug/mL), Donor 1” value is 0.15 µg/mL and the “Phagocytosis EC50 (ug/mL), Donor 2” value was 0.17 µg/mL. Further, the EC50 in test [2] came out at 0.014 µg/mL.

B2: AbParental, parental anti-CD47 antibody (antibody, human IgG4 S228P, kappa, V domains shown)
VH: QMQLVQSGAEVKKTGSSVKVSCKASGFNIKDYYLHWVRQAPGQALEWMGWIDPDQGDTEYAQKFQDRVTITRDRSMSTAYMELSSLRSEDTAMYYCNAAYGSSSYPMDYWGQGTTVTVSS
VL: NIQMTQSPSAMSASVGDRVTITCKASQDIHRYLSWFQQKPGKVPKHLIYRANRLVSGVPSRFSGSGSGTEFTLTISSLQPEDFATYYCLQYDEFPYTFGGGTKVEIKR
notes: Parental anti-CD47 antibody, described in WO 2013/119714 A1; also called Parental LC-HC; parental antibody
Take B2: in test [1], the “Phagocytosis EC50 (ug/mL), Donor 1” value turned out to be 0.38 µg/mL and the “Phagocytosis EC50 (ug/mL), Donor 2” value is 0.13 µg/mL. The molecule further displayed an EC50 in test [2] of 0.014 µg/mL.

B3: Ab495/Ab356 (LC Ab495, HC Ab356) anti-CD47 antibody (antibody, V domains shown)
VH: QMQLVQSGAEVKKPGSSVKVSCKASGFNIKDYYLHWVRQAPGKGLEWMGWIDPDQGDTEYAQKFQGRVTITRDRSTSTAYMELRSLRAEDTAVYYCNAAYGSSSYPMDYWGQGTTVTVSS
VL: NIQMTQSPSSLSASVGDRVTITCKASQDIHRYLSWYQQKPGKAPKHLIYRANRLVSGVPSRFSGSGSGTEFTLTISSLQPEDFATYYCLQYDEFPYTFGGGTKVEIK
notes: as for B1
On to B3, for which, in test [1], the “Phagocytosis EC50 (ug/mL), Donor 1” value turned out to be 0.68 µg/mL and the “Phagocytosis EC50 (ug/mL), Donor 2” value was 0.92 µg/mL. In test [2], this molecule showed an EC50 of 0.035 µg/mL.

B4: Ab495/Ab480 (LC Ab495, HC Ab480) anti-CD47 antibody (antibody, V domains shown)
VH: QMQLVQSGAEVKKPGSSVKVSCKASGFNIKDYYLHWVRQAPGKGLEWMGWIDPDQGDTEYAQKFQGRVTITRDRSTSTAYMELRSLRAEDTAVYYCNAAYGSSSYPMDYWGQGTLVTVSS
VL: NIQMTQSPSSLSASVGDRVTITCKASQDIHRYLSWYQQKPGKAPKHLIYRANRLVSGVPSRFSGSGSGTEFTLTISSLQPEDFATYYCLQYDEFPYTFGGGTKVEIK
notes: as for B1
As to B4, in test [1], the “Phagocytosis EC50 (ug/mL), Donor 1” value is 0.59 µg/mL and the “Phagocytosis EC50 (ug/mL), Donor 2” value stood at 0.94 µg/mL. The molecule further registered an EC50 in test [2] of 0.066 µg/mL.

B5: Ab1119/Ab170 (LC Ab1119, HC Ab170) anti-CD47 antibody (antibody, V domains shown)
VH: QMQLVQSGAEVKKPGSSVKVSCKASGFNIKDYYLHWVRQAPGKGLEWMGWIDPDQGDTEYAQKFQGRVTITRDRSTSTAYMELRSLRSEDTAVYYCNAAYGSSSYPMDYWGQGTTVTVSS
VL: NIQMTQSPSSLSASVGDRVTITCRASQDIHRYLSWFQQKPGKVPKHLIYRANRLVSGVPSRFSGSGSGTEFTLTISSLQPEDFATYYCLQYDEFPYTFGGGTKVEIK
notes: Variant of AbParental
As to B5, in test [1], the “Phagocytosis EC50 (ug/mL), Donor 1” value was 0.15 µg/mL and the “Phagocytosis EC50 (ug/mL), Donor 2” value was found to be 0.62 µg/mL. This molecule came in with a concentration giving a half-maximal response (EC50) in test [2] of 0.015 µg/mL.

B6: Ab1119/Ab387 (LC Ab1119, HC Ab387) anti-CD47 antibody (antibody, V domains shown)
VH: QMQLVQSGAEVKKPGSSVKVSCKASGFNIKDYYLHWVRQAPGKGLEWMGWIDPDQGDTEYAQKFQGRVTITRDRSTSTAYMELRSLRSEDTAVYYCNAAYGSSSYPMDYWGQGTLVTVSS
VL: NIQMTQSPSSLSASVGDRVTITCRASQDIHRYLSWFQQKPGKVPKHLIYRANRLVSGVPSRFSGSGSGTEFTLTISSLQPEDFATYYCLQYDEFPYTFGGGTKVEIK
notes: Variant of AbParental
B6: the “Phagocytosis EC50 (ug/mL), Donor 2” value in test [1] is 0.52 µg/mL and 0.21 µg/mL. Also, the half-maximal effective concentration (EC50) in test [2] is 0.011 µg/mL and 0.014 µg/mL.
